From article PMC6753139, “TRIM66 reads unmodified H3R2K4 and H3K56ac to respond to DNA damage in embryonic stem cells” (Nature Communications, 2019)
One block for each molecule: values may come before it.

Tests used:
ESCs [1] = assay: survival with DNA repair inhibitors (HR, NHEJ); type: cell-based, mouse; conditions: TRIM66-depleted ESCs under EPI treatment with HR or NHEJ inhibitor
Description: reagent (Fig. S9b, c). We further performed the competitive survival experiment through co-culturing the GFP-labeled wild-type ESCs and TRIM66 KO ESCs under EPI treatment, and our […]
was indeed required for ESC to survive DNA damage (Fig. S9d). […]
localization of γ-H2AX foci and HR repair related proteins (Rad51 and CtIP) or NHEJ repair related protein (DNA-PKcs) in ESCs (Fig. 5f, 5g, S11d, and S11e). We further applied two specific inhibitors (YU238259 and NU7441) to block HR and NHEJ repair respectively (Stachelek et al., […]
affect both HR and NHEJ repair pathways in ESCs (Fig. S11f). To better clarify the mechanisms of TRIM66 involved in the regulation of DNA damage, w e performed the immunofluorescence assay […]
to bind at DNA damage sites (Fig. S11a). […] We also analyzed the relevance of […]
depletion of TRIM66 disrupted the negative correlation of H3K56ac and γ-H2AX (Fig. 5d). In view of the recognition of TRIM66 and H3K56ac (Fig.2 and Fig. S10), we speculated that the loose winding of nucleosomal DNA nearby the DNA damage sites might expose H3K56ac to its reader TRIM66, while TRIM66 deficiency impeded the erasure of H3K56ac at DNA damage sites and the recruitment of DNA repair proteins. […]

ESCs [2] = assay: survival analysis of ESCs treated with DNA-damaging agents; type: cell-based, mouse; conditions: TRIM66-depleted ESCs
Method: Furthermore, we performed competitive survival experiment through mixing the equal amount of TRIM66-KO ESCs and green fluorescent protein (GFP)-labeled WT ESCs (WT-GFP), then co-cultured for 5 days under EPI treatment.
For the culture of ESCs, the medium was changed every day and the cells were passaged every 2 days. The 293T cells were cultured in DMEM containing 10% fetal bovine serum. […]
a, The expression level of DNA damage related genes (Cdkn1a, Gadd45a, and p53) in WT and TRIM66 KO ESCs […]
assay c in WT and TRIM66 KO ESCs treated with EPI. e, Clonal competition assay of WT and TRIM66 KO ESCs treated with EPI in different days (day 1, 3, and 5). Representative images show the mixtures of WT-GFP and […] clones. Scale bar, 10 μm.* represents a difference from WT ESCs or GFP-negative ESC clones at day 1, # indicates a difference from GFP-positive ESC clones at day 1. Statistical significance is determined by two-tailed
(1 picture or pasted object on this page, not shown here)

TRIM24_(824-1006) = molecular target: T1, TRIM24_(824-1006) (human, UniProt O15164 824-1006); assay: ITC; 0.7–4 mM peptide injected into a cell with 0.05 or 0.11–0.15 mM TRIM66-PHD-Bromo (or its mutants), 0.12 mM TRIM24-PHD-Bromo or 0.05 mM TRIM33 PHD-Bromo; 25 °C; 20 mM Tris, 100 mM NaCl, pH 7.5; MicroCal PEAQ-ITC; single measurement; conditions: both partners purified
T1 construct: TRIM24, human, PHD-Bromodomain, residues 824-1006, amplified from a human bone marrow cDNA library, in pET-SUMO-28a (+); also called TRIM24-PHD-Bromo; TRIM24 PHD-Bromodomain; source: E. coli BL21 (DE3), purified (Ni-chelating column, SUMO protease, second nickel column, Superdex 75)
T1 sequence (looked up): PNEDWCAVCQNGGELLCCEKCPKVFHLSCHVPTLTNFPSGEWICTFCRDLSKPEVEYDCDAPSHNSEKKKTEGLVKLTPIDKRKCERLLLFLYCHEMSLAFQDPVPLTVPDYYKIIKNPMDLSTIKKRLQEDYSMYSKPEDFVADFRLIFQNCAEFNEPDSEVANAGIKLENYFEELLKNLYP

TRIM33_(882-1087) = molecular target: T2, TRIM33_(882-1087) (human, UniProt Q9UPN9 882-1087); assay: as above; conditions: both partners purified
T2 construct: also called TRIM33 PHD-Bromo; TRIM33 PHD-Bromodomain; source: E. coli BL21 (DE3), purified (Ni-chelating column, SUMO protease, second nickel column, Superdex 75)
T2 sequence (looked up): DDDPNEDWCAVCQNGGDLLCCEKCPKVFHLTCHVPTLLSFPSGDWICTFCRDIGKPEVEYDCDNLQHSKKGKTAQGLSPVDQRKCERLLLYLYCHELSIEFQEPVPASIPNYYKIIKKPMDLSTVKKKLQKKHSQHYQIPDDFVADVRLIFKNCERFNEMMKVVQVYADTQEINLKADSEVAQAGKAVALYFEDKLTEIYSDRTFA

TRIM66_(965-1160) E968A [3] = molecular target: T3, TRIM66_(965-1160) E968A (human, UniProt O15016 965-1160, E968A); assay: ITC
Target sequence in this assay (O15016 1100-1295 E1103A): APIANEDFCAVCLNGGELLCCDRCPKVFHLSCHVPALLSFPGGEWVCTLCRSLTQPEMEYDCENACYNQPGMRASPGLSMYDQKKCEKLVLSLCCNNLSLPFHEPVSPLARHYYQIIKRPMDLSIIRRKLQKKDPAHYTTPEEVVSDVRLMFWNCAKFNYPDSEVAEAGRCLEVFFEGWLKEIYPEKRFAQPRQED

TRIM66_(965-1160) N969A [4] = molecular target: T4, TRIM66_(965-1160) N969A (human, UniProt O15016 965-1160, N969A); assay: ITC
Target sequence in this assay (O15016 1100-1295 N1104A): as the sequence (O15016 1100-1295 E1103A) above, with A4E, N5A counted along it

TRIM66_(965-1160) E968A [5] = molecular target: T3, TRIM66_(965-1160) E968A; assay: ITC; MicroCal PEAQ-ITC, 25 °C, 20 mM Tris, 100 mM NaCl, pH 7.5; 0.7-4 mM peptide injected into the cell with 0.12 mM TRIM24-PHD-Bromo, 0.05 mM TRIM33 PHD-Bromo, or 0.05 or 0.11-[…] TRIM66-PHD-Bromo (or its mutants); single measurement, errors from the fitting curve
[6] = molecular target: TRIM66-MUT_(968-1160) (PHD-Bromodomain) (human) (UniProt O15016); assay: as above
[7] = molecular target: TRIM66-WT_(965-1160) (PHD-Bromodomain) (human) (UniProt O15016); assay: as above
TRIM66_(965-1160) N969A [8] = molecular target: T4, TRIM66_(965-1160) N969A; assay: as above
[9] = molecular target: T5, TRIM24_(824-1006) (PHD-Bromodomain) (human, UniProt O15164 824-1006); assay: ITC; MicroCal PEAQ-ITC, 25 °C, 20 mM Tris, 100 mM NaCl, pH 7.5; 0.7-4 mM peptide injected into the cell with 0.12 mM TRIM24-PHD-Bromo, 0.05 mM TRIM33 PHD-Bromo, or 0.05 or 0.11-0.15 mM TRIM66-PHD-Bromo (or its mutants); single measurement, errors from the fitting curve; conditions: both partners purified
T5 construct: TRIM24 PHD-Bromodomain, Homo sapiens, residues 824-1006 of UniProt O15164 (Isoform long); also called TRIM24-PHD-Bromo; source: E. coli BL21 (DE3), purified (Ni column, SUMO protease, second Ni column, Superdex 75)
T5 sequence (looked up): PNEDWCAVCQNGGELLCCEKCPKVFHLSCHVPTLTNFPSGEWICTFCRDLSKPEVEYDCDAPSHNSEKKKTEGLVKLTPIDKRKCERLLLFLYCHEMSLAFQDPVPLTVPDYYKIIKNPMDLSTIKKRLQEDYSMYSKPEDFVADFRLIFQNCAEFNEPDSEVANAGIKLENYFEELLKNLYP

[10] = molecular target: T6, TRIM33_(882-1087) (PHD-Bromodomain) (human, UniProt Q9UPN9 882-1087); assay: as above; conditions: both partners purified
T6 construct: also called TRIM33 PHD-Bromo; source: E. coli BL21 (DE3), purified (Ni column, SUMO protease, second Ni column, Superdex 75)
T6 sequence (looked up): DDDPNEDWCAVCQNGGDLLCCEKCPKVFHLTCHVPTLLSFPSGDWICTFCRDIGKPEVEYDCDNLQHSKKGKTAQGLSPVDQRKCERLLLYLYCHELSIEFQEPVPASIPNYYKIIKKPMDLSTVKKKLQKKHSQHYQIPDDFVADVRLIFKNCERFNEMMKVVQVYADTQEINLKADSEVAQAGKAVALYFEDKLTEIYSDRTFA

Molecule: O=c1cc(N2CCOCC2)oc2c(-c3cccc4c3sc3ccccc34)cccc12 [NU7441]
survival rate of TRIM66-depleted ESCs (in words) (ESCs [1]): significant decrease in the survival rate

Molecule: YU238259
survival rate of TRIM66-depleted ESCs (in words) (ESCs [1]): significant decrease in the survival rate

Molecule: bleomycin
survival of TRIM66-KO versus WT ESCs (in words) (ESCs [2]): significantly impaired
survival of TRIM66-KO versus WT ESCs (in words) (ESCs [2]; listed as bleomycin): significantly reduced the survival rates

Kd (TRIM24_(824-1006)): 51.4 µM
Kd (TRIM33_(882-1087)): 3.39 µM
Kd (TRIM66_(965-1160) E968A [3]): 34.8 µM
Kd (TRIM66_(965-1160) N969A [4]): 72.6 µM
B1: H3_(1-12) peptide, unmodified (peptide, UniProt P68431 2-13, looked up)
peptide: ARTKQTARKSTG
notes: histone H3, residues 1-12, unmodified; also called unH3_(1-12); unmodified H3_(1-12); source: synthetic peptide (GL Biochem, Shanghai)

Kd (TRIM66_(965-1160) E968A [5]): 34.8 µM
stoichiometry N (TRIM66_(965-1160) E968A [5]): 1.04
stoichiometry N [6]: 1.12
stoichiometry N [7]: 0.96
Kd (TRIM66_(965-1160) N969A [8]): 72.6 µM
stoichiometry N (TRIM66_(965-1160) N969A [8]): 0.84
stoichiometry N [9]: 0.92
stoichiometry N [10]: 1.06
B2: H3_(1-12) peptide (peptide, UniProt P68431 2-13, looked up)
peptide: ARTKQTARKSTG
notes: histone H3.1, Homo sapiens, residues 1-12; also called unH3_(1-12); unmodified H3_(1-12); source: synthetic peptide (GL Biochem)
